Here are results for nine molecules from patent US10494657B2, “In vitro production of cyclic peptides” (The University Court of the University of Aberdeen, priority 2012, dated 2019).

For one data set, the system named is PatGmac. The data set can be described thus: Macrocyclization of substrate peptides by PatGmac. In kind it is biochemical, Prochloron sp. Here is the method: (§1) For other macrocyclization reactions, 100 μM peptide (e.g. VGAGIGFPAYDG (SEQ ID NO: 68), VGAGIGFPAYRG (SEQ ID NO: 69), or GVAGIGFPAYRG (SEQ ID NO: 84)) was incubated with 20 μM enzyme in a range of buffers for 24 h at 37° C. (see FIGS. 1 to 3).
The VPAPIPFPAYDG (SEQ ID NO: 85) peptide was chosen to match the residues equivalent to P8-P4′, the eight-residue cassette and four C-terminal residue macrocyclization signature.
(§2) PatGmac K598D produced cyclo[VGAGIGFP] with only 8% linear product, at a rate over an order of magnitude faster than wild-type PatGmac with VGAGIGFPAYDG (SEQ ID NO: 68) (FIGS. 2 and 3).

For data set [1], the system named is […]. The data set can be described thus: Macrocyclization reaction, final product ratios by LC-ESI MS ion counts. The data set is classed as biochemical. As to conditions: for Cyclic ion count (%) (M + H = 699) / Linear ion count (%) (M + H = 717) / Unprocessed ion count (%) (M + H = 1123): 100 μM peptide, 50 μM enzyme, 120 h at 37° C. On the procedure: For macrocyclization reactions comparing final product ratios after substrate depletion, 100 μM peptide (VGAGIGFPAYDG) (SEQ ID NO: 68) was incubated with 50 μM enzyme in 150 mM NaCl, 10 mM HEPES pH 8, 1 mM TCEP for 120 h at 37° C. Samples were analyzed by ESI or MALDI MS (LCT, Micromass or 4800 MALDI TOF/TOF Analyser, ABSciex).
LC-MS was performed using a Phenomenex Sunfire C18 column (4.6 mm×150 mm). Solvent A was H2O containing 0.1% formic acid and solvent B was MeOH containing 0.1% formic acid. Gradient: 0-2 min 10% B; 2-22 min 10% B to 100% B; 22-27 min 100% B; 27-30 min 100% B to 10% B. High resolution mass spectral data were obtained from a Thermo Instruments MS system (LTQ XL/LTQ Orbitrap Discovery) coupled to a Thermo Instruments HPLC system (Accela PDA detector, Accela PDA autosampler and Accela Pump). The following conditions were used: capillary voltage 45 V, capillary temperature 320° C., auxiliary gas flow rate 10-20 arbitrary units, sheath gas flow rate 40-50 arbitrary units, spray voltage 4.5 kV, mass range 100-2000 amu (maximum resolution 30000).
The peptide VGAGIGFPAYDG (SEQ ID NO: 68) was used as a substrate for PatGmac in biochemical assays (FIG. 4C[[c]]). The ratio of macrocyclized to linear product using this substrate peptide was determined by ion counts obtained from liquid chromatography-electrospray ionization mass spectrometry (LC-ESI MS).

Data set [2] relates to […]. The data set is described as above. The data set is classed as biochemical.
Data set [3] concerns […]. Nature of the data set: Macrocyclization of substrate with modified recognition sequence (Asp to Arg). The data set is classed as biochemical. Here is the method: as §1, §2
The test system of data set [4] is […]. Nature of the data set: Macrocyclization reaction rate in different buffers (LC-MS). The data set is classed as biochemical. On the procedure: as §1
PatGmac is a slow enzyme; turnover rates reported to date are ˜1 per day (Lee, J., McIntosh, J., Hathaway, B. J. & Schmidt, E. W., 2009; McIntosh, J. A. et al., 2010). […] Adding DMSO gave a small increase in rate but shifted the optimum pH, thus a buffer containing 500 mM NaCl and 5% DMSO at pH 8 gave a reaction rate over 50 times greater (FIG. 1C). Under these conditions, about 7% linearized VGAGIGFP (SEQ ID NO: 70) byproduct was observed which can be separated from cyclo[VGAGIGFP] (SEQ ID NO: 70) by HPLC.

The next data set concerns PatE2/PatE2K. The data set can be described thus: C-terminal cleavage and macrocyclization of heterocyclized, N-terminally cleaved PatE2/PatE2K. In kind it is biochemical. As to conditions: 100 μM substrate, 20 μM PatGmac, 24 hours at 37° C., 20 mM Bicine pH 8.1, 500 mM NaCl, 5% DMSO. Here is the method: The final stage in patellamide production is C-terminal cleavage and macrocyclization. This step is catalyzed by the PatGmac domain. In order to macrocyclize our single cassette we incubated 100 μM heterocyclized (with either PatD or TruD) and N-terminally cleaved PatE2/PatE2K with 20 μM PatGmac for 24 hours at 37° C. in 20 mM Bicine pH 8.1, 500 mM NaCl, 5% DMSO to complete the reaction. Completeness of the reaction was confirmed by LCT-ESI MS (FIG. 16). […] PatGmac is also highly expressed in E. coli with between 200 and 250 mg purified protein obtained per liter of culture. The final macrocycles were purified by HPLC on a C18 peptide column. PatD and TruD heterocyclised macrocycles were subjected to HRMS and their structures confirmed by fragmentation (see FIGS. 19 to 21; Table 3). NMR analysis was carried out on TruD and PatD heterocyclised macrocycles, as shown in FIGS. 20 and 21) (Tables 7 and 8).

Data set [5] deals with […]. As to conditions: rates reported to date; cited from earlier work.
Where [6] appears, read: 500 mM NaCl and 5% DMSO at pH 8.

Changes are numbered by the printed parent chain. In names and notes the source's numbering stands.

Regarding VGAGIGFPAYRG, the “macrocyclization of the substrate by PatGmac (rate)” value with PatGmac was “an order of magnitude faster than GVAGIGFPAYRG”.

“VPAPIPFPAYDG [substrate mimic peptide, prolines mimic heterocycles]”: the “macrocyclization of the substrate by PatGmac (rate)” value in the data set on PatGmac was “can in fact be macrocyclized by PatGmac (albeit slowly)”.

B1: PatGmacΔ1 (protein)
chain: GEDEIESAGVSASEVESSATKQKVALHPHDLDERIPGLADLHNQTLGDPQITIVIIDGDPDYTLSCFEGAEVSKVFPYWHEPAEPITKDRIVLNDHACHVTSTIVGQEHSPVFGIAPNCRVINMPQDAVIRGNYDDVMSPLNLARAIDLALELGANIIHCAFCRPTQTSEGEEILVQAIKKCQDNNVLIVSPTGNNSNESWCLPAVLPGTLAVGAAKVDGTPCHFSNWGGNNTKEGILAPGEEILGAQPCTEEPVRLTGTSMAAPVMTGISALLMSLQVQQGKPVDAEAVRTALLKTAIPCDPEVVEEPERCLRGFVNIPGAMKVLFGQ
In the case of B1, in data set […] [1], the “product formed (macrocyclized vs linear)” value is “only linear VGAGIGFP”, the “Cyclic ion count (%) (M + H = 699)” value worked out at 0%, the “Linear ion count (%) (M + H = 717)” value was determined as 92% and the “Unprocessed ion count (%) (M + H = 1123)” value worked out at 8%. Besides, the “substrate consumption rate relative to native protein” value in data set […] [2] is listed as “approximately the rate of native protein”.

B2: PatGmac: macrocyclase domain of PatG, residues 492-851 (protein)
chain: GEDEIESAGVSASEVESSATKQKVALHPHDLDERIPGLADLHNQTLGDPQITIVIIDGDPDYTLSCFEGAEVSKVFPYWHEPAEPITPEDYAAFQSIRDQGLKGKEKEEALEAVIPDTKDRIVLNDHACHVTSTIVGQEHSPVFGIAPNCRVINMPQDAVIRGNYDDVMSPLNLARAIDLALELGANIIHCAFCRPTQTSEGEEILVQAIKKCQDNNVLIVSPTGNNSNESWCLPAVLPGTLAVGAAKVDGTPCHFSNWGGNNTKEGILAPGEEILGAQPCTEEPVRLTGTSMAAPVMTGISALLMSLQVQQGKPVDAEAVRTALLKTAIPCDPEVVEEPERCLRGFVNIPGAMKVLFGQ
As for B2, in data set […] [1], the “product formed (macrocyclized vs linear)” value was “only macrocyclized product”, the “Cyclic ion count (%) (M + H = 699)” value is given as 100%, the “Linear ion count (%) (M + H = 717)” value is reported as 0% and the “Unprocessed ion count (%) (M + H = 1123)” value came to 0%. In data set […] [3], the “ratio of macrocyclized and linear products with VGAGIGFPAYRG” value (shortened to “ratio”) was “equal amounts of macrocyclized and linear products”; the “reaction rate with VGAGIGFPAYRG” value is recorded as “reacted extremely slowly”. In data set […] [4] (setting [6]), the “linearized VGAGIGFP byproduct” value is recorded as “about 7%” and the reaction rate increase result is reported as “over 50 times”. The “rate change on increasing sodium chloride” value in data set […] [4] (NaCl from 150 mM to 500 mM) was “greater than an order of magnitude improvement in rate”. Further, the “rate change on increasing pH” value in data set […] [4] (pH from 8 to 9, 500 mM NaCl) is “further tripled the rate”. Moreover, in the data set with PatE2/PatE2K, the “macrocyclized (ion count analysis)” value is 100%. In addition, in data set […] [5], the turnover rate is given as approximately 1 per day.

B3: PatGmac K594D (protein)
chain: B2 chain with K103D
As to B3, in data set […] [1], the “product formed (macrocyclized vs linear)” value was “approximately one third of the product was macrocyclized”, the “Cyclic ion count (%) (M + H = 699)” value turned out to be 29%, the “Linear ion count (%) (M + H = 717)” value is listed as 71% and the “Unprocessed ion count (%) (M + H = 1123)” value was found to be 0%. In addition, in data set […] [3], the “ratio” value was “equal amounts of macrocyclized and linear products”; the “reaction rate with VGAGIGFPAYRG” value is “reacted extremely slowly”. Also, in data set […] [2], the “substrate consumption rate relative to native protein” value was “approximately the rate of native protein”.

B4: PatGmac R589D K594D K598D (protein)
chain: B2 chain with R98D, K103D, K107D
In the case of B4, in data set […] [1], the “product formed (macrocyclized vs linear)” value is listed as “only produced linear substrate”, the “Cyclic ion count (%) (M + H = 699)” value came to 0%, the “Linear ion count (%) (M + H = 717)” value was found to be 6% and the “Unprocessed ion count (%) (M + H = 1123)” value is 94%. Also, in data set […] [3], the “ratio” value is “equal amounts of macrocyclized and linear products”; the “reaction rate with VGAGIGFPAYRG” value is “reacted extremely slowly”. The “substrate consumption rate relative to native protein” value in data set […] [2] is “substantially slower”.

B5: H618A: site-directed catalytic triad mutant of PatGmac (inactive mutant) (protein)
chain: B2 chain with H127A
Turning to B5, the “product formed (macrocyclized vs linear)” value in data set […] [1] is reported as “no detectable reaction”.

B6: PatGmac K598D (protein)
chain: B2 chain with K107D
For the molecule B6, in data set […] [1], the “product formed (macrocyclized vs linear)” value is recorded as “only linear VGAGIGFP”, the “Cyclic ion count (%) (M + H = 699)” value came to 0%, the “Linear ion count (%) (M + H = 717)” value came to 100% and the “Unprocessed ion count (%) (M + H = 1123)” value is on record as 0%. Also, in data set […] [3], the linear product worked out at 8% and the “reaction rate with VGAGIGFPAYRG” value is “over an order of magnitude faster than wild-type PatGmac with […]”. Also, the “substrate consumption rate relative to native protein” value in data set […] [2] is recorded as “approximately the rate of native protein”.

B7: PatGmacΔ2 (protein)
chain: GEDEIESAGVSASEVESSATKQKVALHPHDLDERIPGLADLHNQTLGDPQITIVIIDGDPDYTLSCFEGAEVSKVFPYWHEPAEPILNDHACHVTSTIVGQEHSPVFGIAPNCRVINMPQDAVIRGNYDDVMSPLNLARAIDLALELGANIIHCAFCRPTQTSEGEEILVQAIKKCQDNNVLIVSPTGNNSNESWCLPAVLPGTLAVGAAKVDGTPCHFSNWGGNNTKEGILAPGEEILGAQPCTEEPVRLTGTSMAAPVMTGISALLMSLQVQQGKPVDAEAVRTALLKTAIPCDPEVVEEPERCLRGFVNIPGAMKVLFGQ
Take B7: in data set […] [1], the “product formed (macrocyclized vs linear)” value is “only linear VGAGIGFP”, the “Cyclic ion count (%) (M + H = 699)” value came to 0%, the “Linear ion count (%) (M + H = 717)” value is reported as more than 99% and the “Unprocessed ion count (%) (M + H = 1123)” value is given as less than 1%. Besides, the “substrate consumption rate relative to native protein” value in data set […] [2] is recorded as “approximately the rate of native protein”.
